Data taken from PMC7893005.

How the values were obtained:
[1] = molecular target: acetylated, soluble type I collagen from rat tail, natively folded (triple-helical) (rat) (UniProt P02454)
[2] = molecular target: gelatin derived from type I collagen from rat tail (acetylated collagen denatured at 95 °C for 10 min) (rat) (UniProt P02454)

Substance | KM of degradation of natively folded type I collagen (Michaelis-Menten kinetics, discontinuous cleavage assay with fluorescamine detection of neo-N-termini, 25 °C) [1] | KM of gelatin degradation (Michaelis-Menten kinetics, discontinuous cleavage assay with fluorescamine detection of neo-N-termini, 25 °C) [2]
ColQ1 collagenase unit (Y94-G765) from Bacillus cereus strain Q1 (from UniProt B9J3S4 94-765) (enzyme) | 1.72 µM | 1.36 µM
ColG collagenase unit from Clostridium histolyticum (from UniProt Q9X721 119-789) (enzyme) | 3.4 µM | 1.35 µM
